Consider 47 sequences from the NTF2 design screens of Basanta et al. (2020).

This data set can be described thus: protease stability score; higher = more stable; yeast display proteolysis, trypsin and chymotrypsin.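 Also: relative to predicted unfolded state with 0 unfolded-like and 1 meaning tenfold more protease.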
On to “DEDEKLSKFAIDNFIQLMLTGDEDSLLHLADPNARLHFNGVEIHGMEEVQERLMRERKERGVRIHSIHIEHIDIQGDWIIVHMHITQRVNGKEESIERILILLKINGRWHLHQIRLH”, for which the protease stability score worked out at 1.28.

“TELEDELRKMFESWRHNSRTGNEHAEDNNMDPNVKLLIDGRTVVGMEFYRKWVHEARIEDSHVDHHTVIDGRAHVHMTLNSNYNGVHRRLEIELVSEKIDGKWRLKSIIIR” gave a protease stability score of 1.51. For “SDEEHQWELAFRFWITILKTGDEDHFERLADPHYLLQIGDKHVVGREQIAREIEKYRRELGVDHSHFDVDHIQVVGDKVEIQGSLEIRVGDKSIHHTTRTIIRKVDGRWLLKKVHFG”, the protease stability score was 1.23.

Regarding “SEEEELVRQWLERTTEALLTGDEEYVLHLADPRTRFDVGDKEIHGMEEFLKRHLQLRIHHMHWEVTEIRLIDGVARSTGTLEIIMQQGDKRFRVRIRSEVISEKIDGRWRLRSIKIH”, the protease stability score was 1.44.

Consider “SEEHESSQKAIELLWHSMETGDEKLTEDFADPHVRLEFNGVRFHGRDQMNEIIHRQLREMRLKSIHLHHIYSFNGRVHIHGEVIGRVDGRELSHEMEIVAVKVDGKWVLKSLRIH”, for which the protease stability score came to 1.2. On to “DDYEKDDKHFLNVFLHMLETGDWEKLEKLADPRVRQDVDGVEYHGMEEAVEVWHRLRHKFKGLTLREVTIHDIRTIDGKIDLDVEFHFDFNGREISRRVIIIVDKINGRWELKSMKEK”, for which the protease stability score came to 0.074. The same measure for “DEDTHNASEALEYLWRVIMTGDEEQVERMADPNVRVVFNGKHLHGREWFLRVLLHIRFDRVRIEHIHTQGEKVRTDSKSDIEFDGRRIEVDIEIYIHKINGRWIVKMFIFR”: 2.89; for “DEDLERARHAIEELIENWRTGNFREIERLMDPNVRIIIGDKTLHGRESMHRFVEEARLEHFELRHVSIVNGRVHVHGTEDWRIGDKRETREVRIVIHKVDGRWNFEFKIIH”: 0.983.

Sequence “DEHEEEAHKFVELKRRIWKTGDERLKSELADPNVKITFNGKELHGMEELIKVNREMGIKHVQIEDIDFQGNKVMVFGRSNIGDFNNRVEIIAEKYNGKWSLSEVRIH” showed a protease stability score of 0.322. For “SEDEHRAEQLLRLWRETYTTGDERVMKELFDPNVRFDFNGREFIGREEAIRAFHEEVRHLGVDHVEIKEVEYRVINGQVHVHIESHFEVDGRRHRVHIESIVRKVNGKWRVEEVRIEIR” the value was 0.969.

In turn, “SEHEKIIVEWTRLLQEILRTGDEEMWLKLLDPHAKTHINGKDIHGMEEAARFWKELHKHMRIEDEEVRETRVVGNKAIYHMERKVNINGRTHEQEVELRVIIVDGQIKKISIHIH” yielded a protease stability score of 0.439. Consider “EEEHKFITDIVRLFQELLRTGDFTLLRRMIDPHARIDINGVENHGWEKTARHIWELGMTRESEVRIRDVKVYDGRVEIDIEVEIHNDYNGRKIVVRHEIILFVIKFNGRWNLEQIHIK”, for which the protease stability score was found to be 1.65. Sequence “SEDEEWLHMAFELFAEAMRTGDEETLREYLDPRVRLVVGDKNLHGMEIVMRHFLEWRVRDVKIERIRVINGQLHIDGRLRVEFNGQEKNVDLTLILDKYNGRWRNRTIELR” showed a protease stability score of 1.69. For “TETERHIEEHLRQMVHQLRTGDFERFEDLADPNMRIDVDGKEFIGREAVDRFWRRVDVIHDLDFKDMEIQGNKVVLNVRIIGNINGVHDHTEQHIVVFKINGRWYWHSIEVH” the value was 1.16; for “TELEEEVERLMEIFHKAFETGDEHELKRLADPHVRLDFNGRDIHGMDFIIREWLKIKNMRFRIHLDHVELQGEKVHIDGKVEEDFDGVHRHHRVILIWEKYDGRWHHKRMHVK”, 1.43. For the sequence “DHDEKRVREILELFLNAITTGDEETLRHLLDPNVKTDINGVELHGWKDILHHLMEMRIHVRHYETRHLNKIGEYLHLEVHVYGEHHFDGRTREDTYYVNVIILKVNGRWHLHQFSVH”, the protease stability score amounted to 1.39. The same measure for “DELEELEKEAIKESEDILRTGDEERILRLADPNVRVDIDGVVRHGREWWTRLFSDELRKFKGARIRLKEIRSFDGRIRIDTTLEVDGVTRDMYVISEKVNGRWIIRSIHYE”: 1.33; for “SEEQEEMRKLLKEFWHHTQTGDEDSFKRLADPDVKLRIDGKNYHGREATEFFTRRFDVIHDLRIHHMTIQGDWVRLEGTMHIEVGNYHDTKDVRIIILKYNGRWVNHEVRIH”: 0.741. “DEEEELNREALKEFHDDMKTGDERHILENLDPNTRIQFNGRDLHGRENAERFIRELIQKYGATVFNMKRVEVQGDWLHIDGELVIGDKKHRIHIIAVKINGRWTDTELRIK”: the protease stability score worked out at 1.48.

“DEDERRDRELAEHFEHLWMTGDEETLVENLDPNARVKVGDKENHGREAFILFLREFGIDHFEFRDSKIVNGQVHIDGEIDWNGRRTRVEHIVKIVDGKVKHWEIRIK”: the protease stability score turned out to be 1.52. On to “SEEEKFAERFIRLFMEALETGDERVLEELLDPNVRVEVNGREYHGRDVFTRLVREWRIDHLDTHTHRIDSQGDKVNADTRVRFHHKVGDKVHDTEMHVILHSEKFNGRWHMTEIIIR”, for which the protease stability score worked out at 1.34. The same measure for “SEHEEHLKHISELMVKLFLTGDEELINHLADPDTRLNINGVHFIGREHAVKASKDFWDELGVNHIEIEDRKVINGRVTMTGHVHVGDKYRRTQNYLVVVNGRLKNVEWRID”: 0.806; for “DEDEHQSRHLAELIMRHIQTGDEEMIERLADPHARSNVNGVTDHGRNTMRWMKEFFKNLTLHIEDVRIVHIGNKVIVIIHLTVRFENREEHVIIIIISEKFDGRWWITEIEIRIK”: 0.505. The same measure for “DEDKDLMHEVTRLLHRNLNTGDEHSLERLFDPHYRYHQGEFHSVGREEWYEWLRRYGVDHVHVNLTESISVGDKMKLEGKLELRYDGRRFEHDLHLIALKIDGRWIFTSSHVR”: 0.221.

The sequence “DELEHFLLEILRELAHALETGDEERLTDLIDPHARINVDGVEIHGMDHWRELLHQIRFSIEDMHITHVEVQGDKIIIHGRVHVSNEVDGVENRSETHEIWYMKKFDGRWRVTTIEVK” gave a protease stability score of 1.3. Regarding “DEHKEEFREWVERLEHVLKTGNEDELHELADPDVKVRIGDKEIHGMHEVLRFILEFYKKLGIDHRHLRIDDYRVQGDFLHIDGHLELTFNGRKHTHQLHIVVLKVNGRWILKEIRVS”, the protease stability score was 2.25.

On to “DEEEKILHDALEELKREFETGDEELWQRLADPHTRVEVGDKEYHGREEFVKMMSDFVRHLRWEELRIRSVHAQGEKVITHIELEMNIDGRREIHNVTIIMRKINGRWHIEFMHKR”, for which the protease stability score worked out at 0.926. The same measure for “DEWEEWLKAILEELRRISHTGDEDEIINNADPNVKIKIGDKLIIGREEFRRIMLELSKHFGITRFEFELHDRRIVGDKIHLDGTSRFNGVDERTTLIIMKVNGRWILRSMHVE”: 1.41; for “SEDVRDAHEMARIFLEVFRTGNEHHHERMMDPHARVRFDGVDHHGREESTKLLLELWRRVDHLHMDITDLRVQGDKVEVHIRLENRYNGRTHIIHVHLVMIKVDGRWVIREIHFD”: 0.752; for “SEMEETLKKAFHNLLEHIKTGDEQLLKEFLDPNTKVEVDGVELIGMEKFIELMREIEKRVDVIRSLELEHWEVVGNKIRMEVRLNIEINGKDTFTRTHLIALKVNGRWILHSVRIG”: 1.75. “DEREELDEHWFRLQFQAMETGDENLVRDNLDPHVKVVVGDKEFVGRHYAIRLFHDLGVDHLVKKSEDRQGEKVIVHGRLDIGDKRHEIVLIIRKIDGKWVVHEIIIR”: the protease stability score was determined as 1.35. The sequence “SEEEVLAHKFLRTWVESMNTGDEKSIMRLFDPNVRYHVGDKEIHGMDEHREEFTELLHRVKNVRFFFDEHDMRNIDGRIEMKGRLEIIQGEYHESTTVELIITKVNGQWVWESVFIK” showed a protease stability score of 0.488. For “DEKDKMSEVTLKLYIHWFLTGDWKSLFDLVDPHMQVRVGDKKFHGREQAVEEIERLLKRIDHITHIQERSFEIIGNKVHLDGELNVIIDGKRIVKDQIIIAVKIDGKWLLQIDEFE” the value was 1.92; for “SEDDKMQEIAVELLEHTLKTGDEHTSKKLVDPHVRLQIGDKEHHGRDEVTRWLTELAQRADHMHIEIKDMFNVNGVVIMHGTLKIHIGDKELRLDVEWIILKYNGKWLIHSIHIR”, 1.94. For “DEEEEKLKKWADDTIQLLRTGDEEDLYKMLDPHARTEVNGRELHGREEMFKVLKTIWDKVKGIKFLHRDHRLYNGRVEIHGELVIGDKIHKVHIIVLIINGKIKEVEIHIH” the value was 1.39; for “EEEEEKQERALRWFLHIIETGNEELLHRLLDPNVQVEIGDKRFHGWKHLLMVFNDLGVKHVELRDFTIINGVIRNEILLRVGDKENLTILILRKVDGKWQLERFNLQ”, 1.79. On to “SDLERHISEVFKDIIEMEETGDEEELDKLADPNVRIDIDGVELIGRESLRRWVESVVDQIKGIKKHIVIRHLRVFNGRADSDGELRIHINGKTIVRKVRIHITVVNGRLKEMQFRTE”, for which the protease stability score worked out at 1.19.

In turn, “SEEEKRAKKLIEIFMESIETGDWKEIHRMMDPTTRLEQGDYEHHGRDEIRELWLQELLDLGVERIRVKVHHVDVIDGKAHVDVTIHFNGVTQRRHYVIVKIDGRWMIKLVIIR” returned a protease stability score of 1.81. As to “DEDLEETRKLIELLTRAFFTGDEDEMKNLADPSVRIIINGREVHGMDEWVRLLEEIRLEDVHSNLRDIRYFNGVVEVDGEFRLDGNINGRRFHHVFDLRLYVIKVNGRWRVKSWRNI”, the protease stability score came out at 1.83. As for “DEHEEHVHEITRLIIEAELTGDFERMKKMFDPNAKLILLINGREDTNHGMDFVRFWLKEHLERVDHRRVELKRWDVVNGVSHNDVTLHLEVGEWKITVKMHLHIVVVDGRLKSIKIEIR”, the protease stability score was determined as 1.4.

In turn, “DEEEEHMRKMHEKFRKIRHTGNFEDYFRLLDPNARMHVNGQNMHGRDVVSKWFKHFVEEIRIEHFEIHDVKYIDGRSHEDGWLVGTIDGKHFDSRTEIILIVVDGKLKQFHIHIR” yielded a protease stability score of 0.489. The same measure for “DEQEEHLHEMVRRFLHHFLTGDWKTLHRMFDPNARYHINGQDHVGREEINRFWREHWEHARIHDLRIKSVELFENRSHIIGHLDGNIDGKEVRTDVEIILVIVNGRVRYIEVRQH”: 1.52; for “SEEHQTAEKMLRILLHLFLTGDEDKFEHLLDPHVRLHVGDKEIHGRELASKKLHEMVRHLRVRDVHVDTLDIQGNKMHFDTRIDVEQGDKTYILRFHWYNEKVDGRWRIHLVHYD”: 1.68; for “DEMERNEELALKIIEETQRTGDWHMIYEQLDPHVRIIIGDKTLVGREHVEEWLHRIDHLHVDDMKLEHSRPINGRILLDVHMHVHIRYGDKQVKHTTHVHIIMFKFNGRWYLKIVHIH”: 2.65. “HEEEQEIEKIVEDILRAWETGDWKTFYELADPHTKHTLIQGDKHIHRHGRDRMSDLLEELLKRFKGAIVDIKDIKWIDGQLNMTGELQIGDKKHKVHLHMNFIDGKIKRIEIRVD” registered a protease stability score of 1.13. The same measure for “DEKQDLWRHLLEQFFRWYQTGDEDLLFKYADPHVRFRQGDKEHHGREEMIRMLREHRHHFGADHFKVETMEIQGDKATFVMHDHVNGVDIEIRVHVVVIDGRIRSFKFERH”: 1.34; for “DEDRESEEKAIKTWWHMVETGDEKLFKKLADPDTKMVINGVEKHGMETVHEFLNRVDHIRQFDIEDHRFYNGRLELHIRVDVEFNGRRHETERRVIASKVNGRWLLKEVIVH”: 0.689.
